Results as given in patent publication US20230322930A1, “USE OF AN ANTI-PD-1 ANTIBODY AND A CYTOTOXIC ANTICANCER DRUG IN TREATMENT OF NON-SMALL CELL LUNG CANCER” (SHANGHAI JUNSHI BIOSCIENCES CO., LTD., priority 2020, published 2023).

Tested on: EGFR+NSCLC patients
Assay: Phase II clinical trial, safety study (treatment-related adverse effects)
Conditions: with pemetrexed + carboplatin; n = 40

toripalimab: anti-PD-1 humanized IgG4 mAb with light and heavy chains of SEQ ID NOs: 9 and 10; described in WO 2014206107
Elevated glutamyltransferase (TRAE), incidence of grade 3-5: 0% | Elevated glutamyltransferase (TRAE), total incidence: (10.0) % | Influenza and other diseases (TRAE), incidence of grade 3-5: 0% | Influenza and other diseases (TRAE), total incidence: (10.0) % | Leukopenia (TRAE), incidence of grade 3-5: (22.5) % | Urinary tract infection (TRAE), incidence of grade 3-5: 0% | Urinary tract infection (TRAE), total incidence: (12.5) %
